# ± gives the uncertainty stated by the source.
# B1: Triacylglycerol hydrolase DDHD2, residues 389 to 447; numbered along this chain, O94830 (parent)
# chain: TLEEDLKKLQLSEFFDIFEKEKVDKEALALCTDRDLQEIGIPLGPRKKILNYFSTRKNS
# Variants of: B1
# Experiment: abundance fitness (aPCA) (normalised: wild type 0, dead -1); higher = more abundant; growth selection in yeast, the domain comes from the species named
# Conditions: Homo sapiens
row,Variant,abundance fitness
1,E4Y,-0.777 ± 0.12
2,E4W,-0.811 ± 0.081
3,E4I,-0.432 ± 0.12
4,D5Q,-0.062 ± 0.068
5,D5A,-0.144 ± 0.06
6,D5V,-0.343 ± 0.06
7,D5N,-0.319 ± 0.1
8,S54E,-0.033 ± 0.073
9,S54C,-0.285 ± 0.1
10,S54N,-0.152 ± 0.1
11,S54Q,0.055 ± 0.098
12,S54D,-0.146 ± 0.095
13,S54I,-0.146 ± 0.11
14,S54Y,-0.443 ± 0.12
15,S54W,-0.471 ± 0.09
16,S54V,-0.409 ± 0.068
17,K20P,-0.591 ± 0.095
18,K20I,-0.321 ± 0.14
19,K20W,-0.536 ± 0.11
20,N51A,0.151 ± 0.073
21,N51R,0.042 ± 0.067

row,Variant,abundance fitness
1,N51P,-0.37 ± 0.11
2,N51E,0.18 ± 0.094
3,N51I,-0.93 ± 0.17
4,N51Y,-0.475 ± 0.14
5,N51Q,0.166 ± 0.1
6,N51D,0.209 ± 0.089
7,N51V,-0.729 ± 0.092
8,N51K,0.044 ± 0.097
9,D33N,-0.367 ± 0.1
10,D33M,0.124 ± 0.095
11,D33I,-0.821 ± 0.16
12,D33E,-0.058 ± 0.099
13,D33R,-0.576 ± 0.078
14,D33F,-0.609 ± 0.12
15,D33Q,-0.446 ± 0.11
16,T55Y,-0.159 ± 0.1
17,T55G,0.007 ± 0.054
18,T55Q,0.006 ± 0.11
19,T55V,-0.152 ± 0.063
20,T55W,-0.295 ± 0.11
21,T55D,-0.067 ± 0.086

row,Variant,abundance fitness
1,T55K,0.178 ± 0.096
2,T55H,-0.146 ± 0.14
3,D35I,-1.13 ± 0.19
4,D35W,-0.429 ± 0.1
5,D35S,-0.051 ± 0.07
6,D35M,0.215 ± 0.083
7,D35F,-0.311 ± 0.12
8,D35R,0.053 ± 0.07
9,D35P,-0.937 ± 0.14
10,D35A,-0.309 ± 0.084
11,E3R,-0.239 ± 0.049
12,E3C,-0.748 ± 0.1
13,I39L,0.176 ± 0.064
14,I39W,0.613 ± 0.072
15,I39S,-0.364 ± 0.078
16,I39H,-0.341 ± 0.19
17,I39C,-0.411 ± 0.12
18,S59P,-0.064 ± 0.11
19,S59K,-0.547 ± 0.37
20,S59A,-0.235 ± 0.1
21,S59W,-0.074 ± 0.16

row,Variant,abundance fitness
1,S59C,-0.058 ± 0.13
2,S59T,-0.085 ± 0.11
3,S59F,0.03 ± 0.12
4,S59Q,-0.293 ± 0.4
5,P42T,-0.839 ± 0.11
6,P42N,-0.35 ± 0.14
7,A27I,-0.045 ± 0.18
8,A27W,0.841 ± 0.077
9,A27N,0.263 ± 0.15
10,A27P,-0.355 ± 0.13
11,A27K,0.67 ± 0.085
12,A27Y,0.6 ± 0.12
13,A27G,0.316 ± 0.065
14,A27S,-0.096 ± 0.076
15,F18A,-0.134 ± 0.074
16,F18D,-0.399 ± 0.1
17,F18S,-0.445 ± 0.081
18,F18G,-0.644 ± 0.082
19,F18T,-0.759 ± 0.12
20,F18P,-0.035 ± 0.094

# — the Human Domainome abundance scans (Beltran et al. 2025)
